Where no end group is shown, it is not given here.
Columns and labels:
[1] = target: T1, PSMA Fab (006 PSMA Fab) (biotinylated (site not stated)); test: clonal phage ELISA on plate-captured biotinylated PSMA Fab, blocking buffer alone, anti-M13 HRP detection
T1 construct: also called Anti-PSMA Fab

[2] = target: T1, PSMA Fab (006 PSMA Fab); test: clonal phage ELISA on plate-captured biotinylated PSMA Fab pre-incubated with PSMA antigen as competitor, anti-M13 HRP detection
Description: (§1) Clonal phage were harvested as crude supernatants and screened via standard ELISAs. […] Prior to the addition of clonal phage. wells were incubated with blocking buffer and PSMA antigen or blocking buffer alone. Without washing or aspirating, clonal phage supernatants were then added to the wells and incubated for a short time. Wells were then washed followed by detection of bound phage using a horse radish conjugated anti-M13 antibody.

[3] = target: T2, PSMA Fab (006 PSMA Fab); test: clonal phage ELISA on captured PSMA Fab pre-incubated with PSMA antigen as competitor, anti-M13-HRP detection;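 note: wells blocked with buffer plus PSMA antigen before phage addition, with blocking buffer alone as the no-competitor control, bound phage detected after washing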
T2 construct: also called Anti-PSMA Fab
Description: as §1

[4] = target: T2, PSMA Fab (006 PSMA Fab); test: clonal phage ELISA on biotinylated PSMA Fab captured on neutravidin plates, anti-M13-HRP detection;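 note: crude clonal phage supernatants added to wells preincubated with PSMA antigen or with blocking buffer only (no wash between), briefly incubated, then washed before detecting bound phage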
Description: as §1

[5] = target: T3, PSMA Fab (SEQ ID NOs: 19, 20); test: clonal phage ELISA; captured biotinylated PSMA Fab pre-incubated with PSMA antigen as competitor, anti-M13-HRP detection
T3 construct: also called Anti-PSMA Fab; 006 PSMA Fab
Description: as §1

[6] = target: T3, PSMA Fab (SEQ ID NOs: 19, 20); test: clonal phage ELISA; biotinylated PSMA Fab captured on neutravidin plate, bound phage detected with anti-M13-HRP
Description: as §1

Binder	Phage binding ELISA signal, Anti-PSMA Fab [1]	Phage binding ELISA signal, Anti-PSMA Fab in presence of PSMA [2]	Phage binding ELISA signal, Anti-PSMA Fab with PSMA antigen [3]	Phage binding ELISA signal, Anti-PSMA Fab [4]	other results
VLHKCLPTWMCNGF [Phage-3836]	1.23	0.0967	–	–	–
VDRMCVPPWMCDVL [Phage-3827]	–	–	0.0859	1.24	–
IDRHCIPAWMCEQF [Phage-3828]	1.24	0.0571	–	–	–
PPRACVPSWMCTGF [Phage-3830]	1.24	0.0854	–	–	–
VHIMCVPPWMCERF [Phage-3819]	–	–	0.0664	1.27	–
QVKYCEPQWMCAGL (cysteine pairing not given here; also: displayed on phage as fusion to pIII, junction not given here) [Phage-3823]	–	–	0.0788	1.25	–
ASISCIPDWMCHGF [Phage-3815]	–	–	0.0872	1.28	–
SDYMCRPSWMCEGL [Phage-3838]	1.23	0.0632	–	–	–
PEIRCAPLWMCVGF [Phage-3829]	1.24	0.0725	–	–	–
AYPMCSPAWMCAGF (cysteine pairing not given here; also: displayed on phage as fusion to pIII, junction not given here, Tested as clonal phage supernatant; not shown: pIII coat protein of the bacteriophage to which the peptide is fused) [Phage-3812 (Peptide-180 library clone, SEQ ID NO: 4128)]	–	–	–	–	Phage binding ELISA signal, Anti-PSMA Fab with PSMA antigen [5]: 0.0779; Phage binding ELISA signal, Anti-PSMA Fab [6]: 1.29
VGIRCEPAWMCEGF [Phage-3833]	1.24	0.0645	–	–	–
NYNACVPIWMCEGF [Phage-3839]	1.22	0.104	–	–	–
EAPYCRPSWMCAGF (cysteine pairing not given here; also: displayed on phage as fusion to pIII, junction not given here) [Phage-3824]	–	–	0.0837	1.25	–
LDLSCVPAWMCTGF [Phage-3816]	–	–	0.0963	1.28	–
EFKWCVPDWMCYGV (cysteine pairing not given here; also: displayed on phage as fusion to pIII, junction not given here) [Phage-3814]	–	–	0.0589	1.29	–
ATVVCSPPWMCTGF [Phage-3817]	–	–	0.0662	1.27	–
PGMVCKPSWMCSHL [Phage-3825]	–	–	0.107	1.25	–
PQIWCVPTWMCAAS (cysteine pairing not given here; also: displayed on phage as fusion to pIII, junction not given here) [Phage-3821]	–	–	0.0743	1.26	–
ENAKCSPAWMCVGF [Phage-3818]	–	–	0.0752	1.27	–
VQHWCVPAWMCYGL [Phage-3826]	–	–	0.107	1.24	–
QEPVCRPAWMCSGF [Phage-3822]	–	–	0.0764	1.26	–
TSVLCQPLWMCSGF [Phage-3832]	1.24	0.0785	–	–	–
YTAMCVPVWMCNVL (cysteine pairing not given here; also: displayed on phage as fusion to pIII, junction not given here, Tested as clonal phage supernatant; not shown: pIII coat protein of the bacteriophage to which the peptide is fused) [Phage-3813 (Peptide-180 library clone, SEQ ID NO: 4129)]	–	–	–	–	Phage binding ELISA signal, Anti-PSMA Fab with PSMA antigen [5]: 0.0695; Phage binding ELISA signal, Anti-PSMA Fab [6]: 1.29
DPVWCIPQWMCEGF [Phage-3837]	1.23	0.0652	–	–	–
VDRVCIPTWMCEGI [Phage-3834]	1.23	0.0575	–	–	–
LLERCVPSWMCLGF [Phage-3820]	–	–	0.102	1.26	–
FWQRCVPTWMCEGF [Phage-3835]	1.23	0.148	–	–	–
GMKTCVPAWMCVGF [Phage-3831]	1.24	0.08	–	–	–
